Measured values as given in US20260209317A1 (US Dept. of Health and Human Services, published 2026).

Biological target: T1, SARS-CoV-2 WA-1 RBD protein (SARS-CoV-2, UniProt P0DTC2 319-541)
T1 construct: domain: RBD
Assay: ELISA, plate coated with WA1 RBD

B1: B2-269.1 (antibody, V domains shown)
VH: EVQLVESGGGLVQPGGSLRLSCAASGITVSSNYMSWVRQPPGKGLDWVSLIFSGGSTYYADSVKGRFTISRDNSKNTLYLQMNSLRAEDTAVYYCARVGVAVAGTDYDIWGQGTMVTVSS
VL: DIQMTQSPSSLSASVGDRVTITCQASQDINKYLNWYQQKPGKAPKLLIYDASNLETGVPSRFSGSGSGTDFTFTISSLQPEDIATYYCLHYENLPLSFGGGTKVEIK
EC50 (read off the curve): ~4 ng/mL
